Measured values: publication PMC5624674

Target: T1, λCI-CbtA fusion protein (wild-type CbtA toxin of E. coli) (E. coli), P64524
T1 chain: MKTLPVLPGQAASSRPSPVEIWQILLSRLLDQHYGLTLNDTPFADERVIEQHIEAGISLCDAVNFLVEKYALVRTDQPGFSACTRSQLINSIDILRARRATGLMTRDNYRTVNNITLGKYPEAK
Test: two-hybrid
Conditions: remark: other sources report otherwise

B1: α-MreB fusion protein (wild-type E. coli MreB), P0A9X4 1-347 (natural protein)
chain: MLKKFRGMFSNDLSIDLGTANTLIYVKGQGIVLNEPSVVAIRQDRAGSPKSVAAVGHDAKQMLGRTPGNIAAIRPMKDGVIADFFVTEKMLQHFIKQVHSNSFMRPSPRVLVCVPVGATQVERRAIRESAQGAGAREVFLIEEPMAAAIGAGLPVSEATGSMVVDIGGGTTEVAVISLNGVVYSSSVRIGGDRFDEAIINYVRRNYGSLIGEATAERIKHEIGSAYPGDEVREIEVRGRNLAEGVPRGFTLNSNEILEALQEPLTGIVSAVMVALEQCPPELASDISERGMVLTGGGALLRNLDRLLMEETGIPVVVAEDPLTCVARGGGKALEMIDMHGGDLFSEE
  fold increase in lacZ expression: 3 fold
